In IntAct's records for PubMed 22921829:

B1: E3 ubiquitin-protein ligase NEDD4-like (Homo sapiens), Q96PU5-5 (parent)
chain: MATGLGEPVYGLSEDEGESRILRVKVVSGIDLAKKDIFGASDPYVKLSLYVADENRELALVQTKTIKKTLNPKWNEEFYFRVNPSNHRLLFEVFDENRLTRDDFLGQVDVPLSHLPTEDPTMERPYTFKDFLLRPRSHKSRVKGFLRLKMAYMPKNGGQDEENSDQRDDMEHGWEVVDSNDSASQHQEELPPPPLPPGWEEKVDNLGRTYYVNHNNRTTQWHRPSLMDVSSESDNNIRQINQEAAHRRFRSRRHISEDLEPEPSEGGDVPEPWETISEEVNIAGDSLGLALPPPPASPGSRTSPQELSEELSRRLQITPDSNGEQFSSLIQREPSSRLRSCSVTDAVAEQGHLPPPSVAYVHTTPGLPSGWEERKDAKGRTYYVNHNNRTTTWTRPIMQLAEDGASGSATNSNNHLIEPQIRRPRSLSSPTVTLSAPLEGAKDSPVRRAVKDTLSNPQSPQPSPYNSPKPQHKVTQSFLPPGWEMRIAPNGRPFFIDHNTKTTTWEDPRLKFPVHMRSKTSLNPNDLGPLPPGWEERIHLDGRTFYIDHNSKITQWEDPRLQNPAITGPAVPYSREFKQKYDYFRKKLKKPADIPNRFEMKLHRNNIFEESYRRIMSVKRPDVLKARLWIEFESEKGLDYGGVAREWFFLLSKEMFNPYYGLFEYSATDNYTLQINPNSGLCNEDHLSYFTFIGRVAGLAVFHGKLLDGFFIRPFYKMMLGKQITLNDMESVDSEYYNSLKWILENDPTELDLMFCIDEENFGQTYQVDLKPNGSEIMVTNENKREYIDLVIQWRFVNRVQKQMNAFLEGFTELLPIDLIKIFDENELELLMCGLGDVDVNDWRQHSIYKNGYCPNHPVIQWFWKAVLLMDAEKRIRLLQFVTGTSRVPMNGFAELYGSNGPQLFTIEQWGSPEKLPRAHTCFNRLDLPPYETFEDLREKLLMAVENAQGFEGVD
B2: E3 ubiquitin-protein ligase SMURF1 (Homo sapiens), Q9HCE7-1 (parent)
chain: MSNPGTRRNGSSIKIRLTVLCAKNLAKKDFFRLPDPFAKIVVDGSGQCHSTDTVKNTLDPKWNQHYDLYVGKTDSITISVWNHKKIHKKQGAGFLGCVRLLSNAISRLKDTGYQRLDLCKLNPSDTDAVRGQIVVSLQTRDRIGTGGSVVDCRGLLENEGTVYEDSGPGRPLSCFMEEPAPYTDSTGAAAGGGNCRFVESPSQDQRLQAQRLRNPDVRGSLQTPQNRPHGHQSPELPEGYEQRTTVQGQVYFLHTQTGVSTWHDPRIPSPSGTIPGGDAAFLYEFLLQGHTSEPRDLNSVNCDELGPLPPGWEVRSTVSGRIYFVDHNNRTTQFTDPRLHHIMNHQCQLKEPSQPLPLPSEGSLEDEELPAQRYERDLVQKLKVLRHELSLQQPQAGHCRIEVSREEIFEESYRQIMKMRPKDLKKRLMVKFRGEEGLDYGGVAREWLYLLCHEMLNPYYGLFQYSTDNIYMLQINPDSSINPDHLSYFHFVGRIMGLAVFHGHYINGGFTVPFYKQLLGKPIQLSDLESVDPELHKSLVWILENDITPVLDHTFCVEHNAFGRILQHELKPNGRNVPVTEENKKEYVRLYVNWRFMRGIEAQFLALQKGFNELIPQHLLKPFDQKELELIIGGLDKIDLNDWKSNTRLKHCVADSNIVRWFWQAVETFDEERRARLLQFVTGSTRVPLQGFKALQGSTGAAGPRLFTIHLIDANTDNLPKAHTCFNRIDIPPYESYEKLYEKLLTAVEETCGFAVE
B3: Mothers against decapentaplegic homolog 7 (Homo sapiens), O15105 (parent)
chain: MFRTKRSALVRRLWRSRAPGGEDEEEGAGGGGGGGELRGEGATDSRAHGAGGGGPGRAGCCLGKAVRGAKGHHHPHPPAAGAGAAGGAEADLKALTHSVLKKLKERQLELLLQAVESRGGTRTACLLLPGRLDCRLGPGAPAGAQPAQPPSSYSLPLLLCKVFRWPDLRHSSEVKRLCCCESYGKINPELVCCNPHHLSRLCELESPPPPYSRYPMDFLKPTADCPDAVPSSAETGGTNYLAPGGLSDSQLLLEPGDRSHWCVVAYWEEKTRVGRLYCVQEPSLDIFYDLPQGNGFCLGQLNSDNKSQLVQKVRSKIGCGIQLTREVDGVWVYNRSSYPIFIKSATLDNPDSRTLLVHKVFPGFSIKAFDYEKAYSLQRPNDHEFMQQPWTGFTVQISFVKGWGQCYTRQFISSCPCWLEVIFNSR
B4: Mothers against decapentaplegic homolog 3 (Homo sapiens), P84022 (parent)
chain: MSSILPFTPPIVKRLLGWKKGEQNGQEEKWCEKAVKSLVKKLKKTGQLDELEKAITTQNVNTKCITIPRSLDGRLQVSHRKGLPHVIYCRLWRWPDLHSHHELRAMELCEFAFNMKKDEVCVNPYHYQRVETPVLPPVLVPRHTEIPAEFPPLDDYSHSIPENTNFPAGIEPQSNIPETPPPGYLSEDGETSDHQMNHSMDAGSPNLSPNPMSPAHNNLDLQPVTYCEPAFWCSISYYELNQRVGETFHASQPSMTVDGFTDPSNSERFCLGLLSNVNRNAAVELTRRHIGRGVRLYYIGGEVFAECLSDSAIFVQSPNCNQRYGWHPATVCKIPPGCNLKIFNNQEFAALLAQSVNQGFEAVYQLTRMCTIRMSFVKGWGAEYRRQTVTSTPCWIELHLNGPLQWLDKVLTQMGSPSIRCSSVS

Variants of: B1
Conditions: with smad7_human SMAD7, O15105

| Variant | effect of a mutation on the interaction |
| --- | --- |
| K378E | decreasing interaction strength |
| K378E;R380E | decreasing interaction strength |
| R380E | decreasing interaction strength |

Variants of: B2
Conditions: with smad7_human SMAD7, O15105

| Variant | effect of a mutation on the interaction |
| --- | --- |
| R243E | decreasing interaction strength |
| R243A | decreasing interaction strength |
| Q247E;Q249E | decreasing interaction strength |
| Q249E | decreasing interaction strength |

Variants of: B3
Conditions: with NEDD4L

| Variant | effect of a mutation on the interaction |
| --- | --- |
| MFRTKRSALVRRLWRSRAPGGEDEEEGAGGGGGGGELRGEGATDSRAHGAGGGGPGRAGCCLGKAVRGAKGHHHPHPPAAGAGAAGGAEADLKALTHSVLKKLKERQLELLLQAVESRGGTRTACLLLPGRLDCRLGPGAPAGAQPAQPPSSYSLPLLLCKVFRWPDLRHSSEVKRLCCCESYGKINPELVCCNPHHLSRLCELESPAAPYSRYPMDFLKPTADCPDAVPSSAETGGTNYLAPGGLSDSQLLLEPGDRSHWCVVAYWEEKTRVGRLYCVQEPSLDIFYDLPQGNGFCLGQLNSDNKSQLVQKVRSKIGCGIQLTREVDGVWVYNRSSYPIFIKSATLDNPDSRTLLVHKVFPGFSIKAFDYEKAYSLQRPNDHEFMQQPWTGFTVQISFVKGWGQCYTRQFISSCPCWLEVIFNSR [P208A;P209A] | disrupting interaction strength |

Variants of: B4
Conditions: with NEDD4L

| Variant | effect of a mutation on the interaction |
| --- | --- |
| T179A | disrupting interaction strength |
| P181A;P182A | disrupting interaction strength |
